Square brackets hold non-standard residues; d marks the D form. Ends that are not written are not given here. * marks the point of attachment. 5‑TAMRA = CN(C)c1ccc2c(-c3ccc(C(=O)*)cc3C(=O)[O-])c3ccc(N(C)C)cc3[o+]c2c1; pS = N[C@@H](COP(=O)(O)O)C(=O)O
Columns and labels:
[1] = molecular target: full-length PKA-RIβ regulatory subunit dimer (UniProt P31321 1-381); test: fluorescence polarisation
[2] = molecular target: full-length PKA-RIα regulatory subunit dimer (bovine, UniProt P00514 1-380); test: fluorescence polarisation
Sequence of full-length PKA-RIα regulatory subunit dimer (P00514 whole entry): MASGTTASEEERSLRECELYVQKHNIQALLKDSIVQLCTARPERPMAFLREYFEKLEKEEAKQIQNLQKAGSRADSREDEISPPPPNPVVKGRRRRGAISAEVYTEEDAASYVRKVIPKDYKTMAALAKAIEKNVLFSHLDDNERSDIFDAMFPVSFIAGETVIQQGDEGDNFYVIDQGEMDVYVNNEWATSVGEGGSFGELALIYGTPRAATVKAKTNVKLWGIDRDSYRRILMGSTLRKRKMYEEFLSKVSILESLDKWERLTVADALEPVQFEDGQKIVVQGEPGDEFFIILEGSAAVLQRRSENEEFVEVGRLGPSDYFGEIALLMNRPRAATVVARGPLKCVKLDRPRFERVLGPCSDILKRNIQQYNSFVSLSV

Sequence of full-length PKA-RIβ regulatory subunit dimer (P31321 whole entry): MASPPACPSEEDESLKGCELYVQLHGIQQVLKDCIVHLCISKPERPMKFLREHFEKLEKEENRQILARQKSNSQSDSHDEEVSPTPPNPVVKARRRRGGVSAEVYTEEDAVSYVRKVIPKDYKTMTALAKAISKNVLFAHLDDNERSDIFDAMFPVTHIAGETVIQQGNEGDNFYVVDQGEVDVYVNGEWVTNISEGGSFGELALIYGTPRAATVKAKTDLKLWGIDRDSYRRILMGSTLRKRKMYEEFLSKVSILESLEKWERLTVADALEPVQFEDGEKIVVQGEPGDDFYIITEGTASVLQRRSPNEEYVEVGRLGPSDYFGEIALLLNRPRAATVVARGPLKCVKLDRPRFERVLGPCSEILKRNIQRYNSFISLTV

- Kd [1]: > 500 nM
- Kd [2]: > 500 nM
Binder: {5‑TAMRA}-IVILEYAHRL[pS]QDILCDALQQWAC (cysteine pairing not given here) [phosphorylated smAKAP-AKB domain peptide (pSer66), tagged with 5-TAMRA]

Reference: paper PMC4980077 (The FEBS journal, 2016)
